From article PMC6205631, “Topological in vitro loading of the budding yeast cohesin ring onto DNA” (Life Science Alliance, 2018) come the findings set out here.

The target in one assay is T1, Scc3 (budding yeast, UniProt P40541 1-1150).
T1 construct: Scc3, budding yeast cohesin subunit; genomic DNA encoding Scc3; also called HEAT repeat subunit Scc3; source: co-purified (IgG agarose, heparin, Superose 6)
T1 sequence (looked up): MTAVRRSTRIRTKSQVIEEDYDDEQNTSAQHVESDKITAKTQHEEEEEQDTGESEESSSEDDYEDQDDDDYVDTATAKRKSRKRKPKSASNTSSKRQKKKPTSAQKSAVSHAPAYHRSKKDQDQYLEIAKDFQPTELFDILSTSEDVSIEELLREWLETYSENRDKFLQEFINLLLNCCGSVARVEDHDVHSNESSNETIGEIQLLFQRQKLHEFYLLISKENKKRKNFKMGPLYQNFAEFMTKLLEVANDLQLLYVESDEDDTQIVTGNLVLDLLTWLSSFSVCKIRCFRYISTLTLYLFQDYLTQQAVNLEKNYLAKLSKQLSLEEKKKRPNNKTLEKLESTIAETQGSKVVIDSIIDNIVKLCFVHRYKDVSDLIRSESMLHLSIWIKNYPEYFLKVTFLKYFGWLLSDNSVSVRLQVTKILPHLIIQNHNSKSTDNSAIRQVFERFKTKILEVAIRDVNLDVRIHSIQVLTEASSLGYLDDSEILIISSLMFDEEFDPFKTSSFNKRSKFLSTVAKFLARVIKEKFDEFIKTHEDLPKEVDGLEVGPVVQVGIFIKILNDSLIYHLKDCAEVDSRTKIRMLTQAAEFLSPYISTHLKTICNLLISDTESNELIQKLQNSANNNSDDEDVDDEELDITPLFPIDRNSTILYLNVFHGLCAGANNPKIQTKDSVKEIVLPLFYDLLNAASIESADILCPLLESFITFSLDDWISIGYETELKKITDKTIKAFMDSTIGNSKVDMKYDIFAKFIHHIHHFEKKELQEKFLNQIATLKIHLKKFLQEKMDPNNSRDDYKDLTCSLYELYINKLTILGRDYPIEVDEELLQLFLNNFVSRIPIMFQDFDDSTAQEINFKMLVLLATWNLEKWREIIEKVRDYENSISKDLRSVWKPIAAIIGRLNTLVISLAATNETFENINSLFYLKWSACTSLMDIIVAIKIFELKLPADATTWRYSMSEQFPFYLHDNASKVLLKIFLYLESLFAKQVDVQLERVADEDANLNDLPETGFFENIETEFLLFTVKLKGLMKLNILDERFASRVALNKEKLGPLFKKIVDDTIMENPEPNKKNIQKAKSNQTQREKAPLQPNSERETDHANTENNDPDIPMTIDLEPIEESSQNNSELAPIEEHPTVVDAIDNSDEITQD
Put plainly: SEC; purified cohesin tetramer, 150 nM in cohesin loading buffer (35 mM Tris-HCl pH 7.0, 20 mM NaCl, 0.5 mM MgCl2, 0.5 mM ATP), run directly or after 120 min at 29°C on Superose 6 Increase 10/300 GL in R buffer (150 mM NaCl); UV absorbance. The following applies: both partners purified. (In gel filtration, larger molecules generally elute earlier.)

The target in a further assay is T2, Smc3 (budding yeast, UniProt P47037 1-1230).
T2 construct: Smc3, budding yeast cohesin subunit; Smc3-encoding genomic DNA; The expression strain is eco1 deleted; also called cohesin subunit Smc3; source: co-purified (IgG agarose, heparin, Superose 6)
T2 sequence (looked up): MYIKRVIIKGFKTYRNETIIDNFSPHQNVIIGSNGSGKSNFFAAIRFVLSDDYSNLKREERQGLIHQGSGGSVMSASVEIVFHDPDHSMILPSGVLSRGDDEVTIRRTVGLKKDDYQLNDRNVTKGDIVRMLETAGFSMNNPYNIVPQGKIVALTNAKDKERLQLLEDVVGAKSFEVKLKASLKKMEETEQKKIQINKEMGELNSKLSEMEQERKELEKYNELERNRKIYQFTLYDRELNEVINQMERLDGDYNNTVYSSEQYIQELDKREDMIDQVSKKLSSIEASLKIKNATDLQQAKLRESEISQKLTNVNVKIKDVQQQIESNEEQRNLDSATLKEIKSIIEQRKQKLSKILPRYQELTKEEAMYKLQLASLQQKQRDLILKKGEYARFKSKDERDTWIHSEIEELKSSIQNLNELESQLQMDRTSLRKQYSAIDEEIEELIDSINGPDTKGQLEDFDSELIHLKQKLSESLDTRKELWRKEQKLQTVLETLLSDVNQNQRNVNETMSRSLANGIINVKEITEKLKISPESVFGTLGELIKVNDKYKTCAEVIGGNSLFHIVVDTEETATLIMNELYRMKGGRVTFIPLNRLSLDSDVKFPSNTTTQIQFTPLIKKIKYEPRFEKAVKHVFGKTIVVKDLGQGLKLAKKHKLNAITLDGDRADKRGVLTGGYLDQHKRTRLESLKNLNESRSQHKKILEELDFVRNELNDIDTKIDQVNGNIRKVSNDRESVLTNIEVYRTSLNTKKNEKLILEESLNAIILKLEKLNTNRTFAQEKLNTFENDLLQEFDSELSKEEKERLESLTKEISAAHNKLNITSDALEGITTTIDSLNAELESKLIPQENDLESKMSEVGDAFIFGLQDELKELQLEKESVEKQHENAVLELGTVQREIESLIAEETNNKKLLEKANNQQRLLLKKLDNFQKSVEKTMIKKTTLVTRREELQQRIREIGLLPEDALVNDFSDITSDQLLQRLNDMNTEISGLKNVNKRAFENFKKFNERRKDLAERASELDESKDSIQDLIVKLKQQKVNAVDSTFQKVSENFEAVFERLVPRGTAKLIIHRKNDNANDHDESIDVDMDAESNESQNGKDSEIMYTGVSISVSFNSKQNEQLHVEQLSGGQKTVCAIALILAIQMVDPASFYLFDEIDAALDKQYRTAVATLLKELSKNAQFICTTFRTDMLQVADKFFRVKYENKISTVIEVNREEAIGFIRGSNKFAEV
Described as above. The note with it: both partners purified.

B1: Scc1 (natural protein, budding yeast, UniProt Q12158 1-566, looked up)
chain: MVTENPQRLTVLRLATNKGPLAQIWLASNMSNIPRGSVIQTHIAESAKEIAKASGCDDESGDNEYITLRTSGELLQGIVRVYSKQATFLLTDIKDTLTKISMLFKTSQKMTSTVNRLNTVTRVHQLMLEDAVTEREVLVTPGLEFLDDTTIPVGLMAQENSMERKVQGAAPWDTSLEVGRRFSPDEDFEHNNLSSMNLDFDIEEGPITSKSWEEGTRQSSRNFDTHENYIQDDDFPLDDAGTIGWDLGITEKNDQNNDDDDNSVEQGRRLGESIMSEEPTDFGFDLDIEKEAPAGNIDTITDAMTESQPKQTGTRRNSKLLNTKSIQIDEETENSESIASSNTYKEERSNNLLTPQPTNFTTKRLWSEITESMSYLPDPILKNFLSYESLKKRKIHNGREGSIEEPELNVSLNLTDDVISNAGTNDNSFNELTDNMSDFVPIDAGLNEAPFPEENIIDAKTRNEQTTIQTEKVRPTPGEVASKAIVQMAKILRKELSEEKEVIFTDVLKSQANTEPENITKREASRGFFDILSLATEGCIGLSQTEAFGNIKIDAKPALFERFINA
notes: Scc1, budding yeast cohesin kleisin subunit; genomic DNA encoding Scc1; also called kleisin subunit Scc1; source: co-purified (IgG agarose, heparin, Superose 6); not shown: two tandem protein A tags, C-terminal, kept
B1: the binding result with Scc3 is on record as “binds”.

B2: Smc1 (natural protein, budding yeast, UniProt P32908 1-1225, looked up)
chain: MGRLVGLELSNFKSYRGVTKVGFGESNFTSIIGPNGSGKSNMMDAISFVLGVRSNHLRSNILKDLIYRGVLNDENSDDYDNEGAASSNPQSAYVKAFYQKGNKLVELMRIISRNGDTSYKIDGKTVSYKDYSIFLENENILIKAKNFLVFQGDVEQIAAQSPVELSRMFEEVSGSIQYKKEYEELKEKIEKLSKSATESIKNRRRIHGELKTYKEGINKNEEYRKQLDKKNELQKFQALWQLYHLEQQKEELTDKLSALNSEISSLKGKINNEMKSLQRSKSSFVKESAVISKQKSKLDYIFKDKEKLVSDLRLIKVPQQAAGKRISHIEKRIESLQKDLQRQKTYVERFETQLKVVTRSKEAFEEEIKQSARNYDKFKLNENDLKTYNCLHEKYLTEGGSILEEKIAVLNNDKREIQEELERFNKRADISKRRITEELSITGEKLDTQLNDLRVSLNEKNALHTERLHELKKLQSDIESANNQEYDLNFKLRETLVKIDDLSANQRETMKERKLRENIAMLKRFFPGVKGLVHDLCHPKKEKYGLAVSTILGKNFDSVIVENLTVAQECIAFLKKQRAGTASFIPLDTIETELPTLSLPDSQDYILSINAIDYEPEYEKAMQYVCGDSIICNTLNIAKDLKWKKGIRGKLVTIEGALIHKAGLMTGGISGDANNRWDKEEYQSLMSLKDKLLIQIDELSNGQRSNSIRAREVENSVSLLNSDIANLRTQVTQQKRSLDENRLEIKYHNDLIEKEIQPKITELKKKLDDLENTKDNLVKEKEALQNNIFKEFTSKIGFTIKEYENHSGELMRQQSKELQQLQKQILTVENKLQFETDRLSTTQRRYEKAQKDLENAQVEMKSLEEQEYAIEMKIGSIESKLEEHKNHLDELQKKFVTKQSELNSSEDILEDMNSNLQVLKRERDGIKEDIEKFDLERVTALKNCKISNINIPISSETTIDDLPISSTDNEAITISNSIDINYKGLPKKYKENNTDSARKELEQKIHEVEEILNELQPNARALERYDEAEGRFEVINNETEQLKAEEKKILNQFLKIKKKRKELFEKTFDYVSDHLDAIYRELTKNPNSNVELAGGNASLTIEDEDEPFNAGIKYHATPPLKRFKDMEYLSGGEKTVAALALLFAINSYQPSPFFVLDEVDAALDITNVQRIAAYIRRHRNPDLQFIVISLKNTMFEKSDALVGVYRQQQENSSKIITLDLSNYAE
notes: Smc1, budding yeast cohesin subunit; PCR amplified Smc1-encoding genomic DNA; also called cohesin subunit Smc1; source: co-purified (IgG agarose, heparin, Superose 6)
For the molecule B2, in the assay with Smc3, the binding result is recorded as “binds”.
